Source: paper PMC10415118

Columns and labels:
Assay in all cases: purified protein
purified protein [1] = substrate: Nc1ccn([C@@H]2O[C@H](CO)[C@@H](O)[C@H]2O)c(=O)n1; conditions: 30 °C, C 0.1-10 mM
purified protein [2] = substrate: CO[C@@H]1[C@H](O)[C@@H](CO)O[C@H]1n1ccc(N)nc1=O; conditions: 30 °C, 2OmC 1-200 mM
purified protein [3] = substrate: Nc1ccn([C@H]2C[C@H](O)[C@@H](CO)O2)c(=O)n1; conditions: 30 °C, dC 0.05-5 mM
purified protein [4] = substrate: Cc1cn([C@@H]2O[C@H](CO)[C@@H](O)[C@H]2O)c(=O)nc1N; conditions: 30 °C, 5mC 1-200 mM
purified protein [5] = substrate: Cc1cn([C@H]2C[C@H](O)[C@@H](CO)O2)c(=O)nc1N; conditions: 30 °C, 5mdC 1-100 mM

B1: CDA (AtCDA; CYTIDINE DEAMINASE; CDA-Strep) (Arabidopsis thaliana) (protein)
chain: MDKPSFVIQSKEAESAAKQLGVSVIQLLPSLVKPAQSYARTPISKFNVAVVGLGSSGRIFLGVNVEFPNLPLHHSIHAEQFLVTNLTLNGERHLNFFAVSAAPCGHCRQFLQEIRDAPEIKILITDPNNSADSDSAADSDGFLRLGSFLPHRFGPDDLLGKDHPLLLESHDNHLKISDLDSICNGNTDSSADLKQTALAAANRSYAPYSLCPSGVSLVDCDGKVYRGWYMESAAYNPSMGPVQAALVDYVANGGGGGYERIVGAVLVEKEDAVVRQEHTARLLLETISPKCEFKVFHCYEA
Km (purified protein [1]): 0.82 ± 0.15 mM
kcat (purified protein [1]): 29.4 ± 1.65 s⁻¹
kcat/Km (purified protein [1]): 35900 M⁻¹ s⁻¹
Km (purified protein [2]): 8.34 ± 1.12 mM
kcat (purified protein [2]): 35.5 ± 1.12 s⁻¹
kcat/Km (purified protein [2]): 4300 M⁻¹ s⁻¹
Km (purified protein [3]): 0.28 ± 0.05 mM
kcat (purified protein [3]): 18.1 ± 0.66 s⁻¹
kcat/Km (purified protein [3]): 64800 M⁻¹ s⁻¹
Km (purified protein [4]): 8.05 ± 0.96 mM
kcat (purified protein [4]): 35.4 ± 1.04 s⁻¹
kcat/Km (purified protein [4]): 4400 M⁻¹ s⁻¹
Km (purified protein [5]): 3.92 ± 0.61 mM
kcat (purified protein [5]): 54.1 ± 1.68 s⁻¹
kcat/Km (purified protein [5]): 13800 M⁻¹ s⁻¹
